Test results from patent US20240109954A1 (GENERAL HOSPITAL, published 2024).

Key:
[1] = target: T1, EBOV GP displayed on vesicular stomatitis virus (VSV) pseudovirions (Ebola virus, UniProt Q05320 33-676); assay: cell-based or functional assay
T1 sequence: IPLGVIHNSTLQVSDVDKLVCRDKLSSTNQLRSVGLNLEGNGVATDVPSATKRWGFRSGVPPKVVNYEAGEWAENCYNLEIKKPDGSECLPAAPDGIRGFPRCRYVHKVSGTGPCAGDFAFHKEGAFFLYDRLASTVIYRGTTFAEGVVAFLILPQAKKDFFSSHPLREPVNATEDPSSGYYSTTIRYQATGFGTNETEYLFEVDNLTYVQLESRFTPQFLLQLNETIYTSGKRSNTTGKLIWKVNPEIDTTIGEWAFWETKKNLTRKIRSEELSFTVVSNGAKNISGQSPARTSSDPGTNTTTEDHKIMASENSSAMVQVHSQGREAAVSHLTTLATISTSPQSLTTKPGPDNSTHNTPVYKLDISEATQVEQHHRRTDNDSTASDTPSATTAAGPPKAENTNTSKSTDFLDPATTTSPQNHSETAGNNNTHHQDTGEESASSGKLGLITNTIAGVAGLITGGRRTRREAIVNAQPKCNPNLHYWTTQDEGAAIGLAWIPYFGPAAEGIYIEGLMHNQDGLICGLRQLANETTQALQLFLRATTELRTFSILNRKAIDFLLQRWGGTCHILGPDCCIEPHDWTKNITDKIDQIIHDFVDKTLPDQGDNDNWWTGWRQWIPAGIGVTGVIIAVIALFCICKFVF

[2] = target: T1, EBOV GP displayed on vesicular …; assay: cell-based or functional assay; remark: listed apart in the source
mouse FcγRI = target: T2, mouse FcγRI (mouse, UniProt P26151 25-297); assay: BLI, mAb on anti-human Fab-CH1 sensor, FcγR in solution
T2 construct: also called mFcγRI
T2 sequence: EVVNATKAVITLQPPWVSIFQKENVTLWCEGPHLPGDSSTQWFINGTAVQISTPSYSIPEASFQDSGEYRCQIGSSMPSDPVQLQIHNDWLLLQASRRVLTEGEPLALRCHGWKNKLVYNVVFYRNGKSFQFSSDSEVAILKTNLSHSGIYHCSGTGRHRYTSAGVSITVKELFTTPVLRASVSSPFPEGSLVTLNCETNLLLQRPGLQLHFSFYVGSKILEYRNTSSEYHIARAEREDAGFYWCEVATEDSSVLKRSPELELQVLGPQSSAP

mouse FcγRIV [3] = target: T3, mouse FcγRIV (mouse, UniProt A0A0B4J1G0 21-203); assay: as above
T3 construct: also called mFcγRIV
T3 sequence: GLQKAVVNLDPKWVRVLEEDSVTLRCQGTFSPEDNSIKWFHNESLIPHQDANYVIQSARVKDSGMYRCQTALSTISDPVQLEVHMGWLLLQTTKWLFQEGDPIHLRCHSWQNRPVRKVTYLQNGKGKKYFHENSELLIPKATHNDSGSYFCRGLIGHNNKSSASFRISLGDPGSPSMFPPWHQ

mouse FcγRIIb [4] = target: T4, mouse FcγRIIb (mouse, UniProt P08101 30-210); assay: as above
T4 construct: also called mFcγRIIb; mFcγR2b
T4 sequence: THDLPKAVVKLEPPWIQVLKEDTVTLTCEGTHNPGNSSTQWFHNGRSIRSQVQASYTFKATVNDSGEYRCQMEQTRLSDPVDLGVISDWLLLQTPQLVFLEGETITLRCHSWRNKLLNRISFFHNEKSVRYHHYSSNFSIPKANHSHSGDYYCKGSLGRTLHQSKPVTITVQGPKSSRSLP

mouse FcγRIII [5] = target: T5, mouse FcγRIII (mouse, UniProt P08508 31-215); assay: as above
T5 construct: also called mFcγRIII; mFcγR3
T5 sequence: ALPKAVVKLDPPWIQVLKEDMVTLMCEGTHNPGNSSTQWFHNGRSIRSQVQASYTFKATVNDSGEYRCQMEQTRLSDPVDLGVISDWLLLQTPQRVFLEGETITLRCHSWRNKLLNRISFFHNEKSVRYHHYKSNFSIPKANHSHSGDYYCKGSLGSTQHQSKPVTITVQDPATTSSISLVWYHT

human FcγR2B = target: T6, human FcγR2B (human, UniProt P31994 43-217); assay: SPR, mAb printed on chip, FcγR injected
T6 construct: also called huFcγR2B
T6 sequence: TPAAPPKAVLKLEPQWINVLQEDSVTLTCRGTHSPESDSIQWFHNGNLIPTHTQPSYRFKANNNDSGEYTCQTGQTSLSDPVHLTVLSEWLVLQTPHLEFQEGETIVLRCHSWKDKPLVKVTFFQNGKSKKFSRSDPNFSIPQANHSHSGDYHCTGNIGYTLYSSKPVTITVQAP

human FcγR2A (R131) [6] = target: T7, human FcγR2A (R131) (human, UniProt P12318 34-217); assay: SPR, mAb printed on chip, FcγR injected
T7 construct: also called huFcγR2A
T7 sequence: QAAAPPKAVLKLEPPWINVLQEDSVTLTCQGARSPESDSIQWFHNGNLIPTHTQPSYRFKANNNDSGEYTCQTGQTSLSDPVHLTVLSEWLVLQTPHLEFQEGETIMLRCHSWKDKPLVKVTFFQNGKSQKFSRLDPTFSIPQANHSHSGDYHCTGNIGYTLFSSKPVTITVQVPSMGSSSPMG

human FcγR3A (F158) = target: T8, human FcγR3A (F158) (human, UniProt P08637 17-208); assay: SPR, mAb printed on chip, FcγR injected
T8 construct: also called huFcγR3A

human FcγR3B [7] = target: T9, human FcγR3B (human, UniProt O75015 17-200); assay: SPR, mAb printed on chip, FcγR injected; ND = not detected
T9 construct: also called huFcγR3B

human FcγR3B [8] = target: T9, human FcγR3B; assay: SPR, mAb printed on chip, FcγR injected
human FcγR2A (R131) [9] = target: T7, human FcγR2A (R131); assay: SPR, mAb printed on chip, FcγR injected; remark: listed apart in the source
mouse FcγRIV [10] = target: T3, mouse FcγRIV; assay: BLI, mAb on anti-human Fab-CH1 sensor, FcγR in solution; remark: listed apart in the source
mouse FcγRIIb [11] = target: T4, mouse FcγRIIb; assay: as above; remark: listed apart in the source
mouse FcγRIII [12] = target: T5, mouse FcγRIII; assay: as above; remark: listed apart in the source

T8 sequence (P08637 17-208): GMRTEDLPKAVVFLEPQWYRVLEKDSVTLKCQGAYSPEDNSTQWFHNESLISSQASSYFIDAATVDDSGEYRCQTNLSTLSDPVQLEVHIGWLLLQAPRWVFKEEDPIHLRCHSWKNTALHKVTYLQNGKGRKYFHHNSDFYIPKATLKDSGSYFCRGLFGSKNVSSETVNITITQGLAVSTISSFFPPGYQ
T9 sequence (O75015 17-200): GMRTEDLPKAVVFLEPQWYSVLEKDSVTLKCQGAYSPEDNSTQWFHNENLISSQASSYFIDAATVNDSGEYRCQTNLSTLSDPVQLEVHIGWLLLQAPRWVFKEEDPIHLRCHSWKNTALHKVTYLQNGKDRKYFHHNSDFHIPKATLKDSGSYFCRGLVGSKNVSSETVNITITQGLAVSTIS

B1: mIgG1 VIC16 (antibody, V domains shown)
VH: QVQFQQSGAELAKLGASVKMSCKASGYTFTKYWMHWIKQRPGQGLEWIGYINPSTGYSENNQKFKGKAILTADKSSSTAYMQLSSLTSDDSAVYYCVRGYDSHYYVMDYWGQGTSVTVSS
VL: DIVITQDTASLAVSRGQRATISCRASESVEYYGTTLMQWYQQRPGQPPKLLIYGASNVESGVPARFSGSGSGTDFSLNIHPVEEDDIAMYFCQQSRKVPYTFGGGTKLEIK
- IC50 (read off the curve) [Cont.] [1]: ~0.3 µg/mL
- IC50, neutralization of VSV pseudotyped to display EBOV GP [2]: 0.34 µg/mL

B2: VIC16-KWES (antibody)
heavy: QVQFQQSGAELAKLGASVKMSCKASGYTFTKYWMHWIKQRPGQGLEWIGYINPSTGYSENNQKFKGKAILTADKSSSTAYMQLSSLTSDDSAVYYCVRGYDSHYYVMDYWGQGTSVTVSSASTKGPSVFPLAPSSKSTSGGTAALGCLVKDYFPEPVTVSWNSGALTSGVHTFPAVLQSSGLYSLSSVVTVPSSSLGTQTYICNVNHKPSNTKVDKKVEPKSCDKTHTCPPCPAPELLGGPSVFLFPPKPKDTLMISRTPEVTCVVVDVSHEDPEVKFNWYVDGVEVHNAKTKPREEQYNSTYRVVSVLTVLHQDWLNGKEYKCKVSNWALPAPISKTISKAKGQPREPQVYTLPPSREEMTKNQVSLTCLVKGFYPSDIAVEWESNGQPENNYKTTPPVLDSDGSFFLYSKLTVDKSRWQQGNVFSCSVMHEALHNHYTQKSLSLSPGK
light: DIVITQDTASLAVSRGQRATISCRASESVEYYGTTLMQWYQQRPGQPPKLLIYGASNVESGVPARFSGSGSGTDFSLNIHPVEEDDIAMYFCQQSRKVPYTFGGGTKLEIKRTVAAPSVFIFPPSDEQLKSGTASVVCLLNNFYPREAKVQWKVDNALQSGNSQESVTEQDSKDSTYSLSSTLTLSKADYEKHKVYACEVTHQGLSSPVTKSFNRGEC
- Kd (mouse FcγRI): 70 nM
- fold-change relative to IgG1 (mouse FcγRI): 1.1 fold
- Kd (mouse FcγRIV [3]): 160 nM
- fold-change relative to IgG1 (mouse FcγRIV [3]): 1.5 fold
- Kd (mouse FcγRIIb [4]): 46000 nM
- fold-change relative to IgG1 (mouse FcγRIIb [4]): 0.3 fold
- Kd (mouse FcγRIII [5]): 20 nM
- fold-change relative to IgG1 (mouse FcγRIII [5]): 0.94 fold
- Kd (human FcγR2B): 224000 nM
- fold-change relative to IgG1 (human FcγR2B): 0.12 fold
- Kd (human FcγR2A (R131) [6]): 8600 nM
- fold-change relative to IgG1 (human FcγR2A (R131) [6]): 3.4 fold
- Kd (human FcγR3A (F158)): 1600 nM
- fold-change relative to IgG1 (human FcγR3A (F158)): 3.8 fold
- IC50, neutralization of VSV pseudotyped to display EBOV GP [2]: < 1 µg/mL
- binding result (human FcγR3B [7]): no binding (tested: FcγR 10 µM to 0.005 µM)

B3: VIC16-SDIEALGA (antibody)
heavy: QVQFQQSGAELAKLGASVKMSCKASGYTFTKYWMHWIKQRPGQGLEWIGYINPSTGYSENNQKFKGKAILTADKSSSTAYMQLSSLTSDDSAVYYCVRGYDSHYYVMDYWGQGTSVTVSSASTKGPSVFPLAPSSKSTSGGTAALGCLVKDYFPEPVTVSWNSGALTSGVHTFPAVLQSSGLYSLSSVVTVPSSSLGTQTYICNVNHKPSNTKVDKKVEPKSCDKTHTCPPCPAPELLAGPDVFLFPPKPKDTLMISRTPEVTCVVVDVSHEDPEVKFNWYVDGVEVHNAKTKPREEQYNSTYRVVSVLTVLHQDWLNGKEYKCKVSNKALPLPEEKTISKAKGQPREPQVYTLPPSREEMTKNQVSLTCLVKGFYPSDIAVEWESNGQPENNYKTTPPVLDSDGSFFLYSKLTVDKSRWQQGNVFSCSVMHEALHNHYTQKSLSLSPGK
light: DIVITQDTASLAVSRGQRATISCRASESVEYYGTTLMQWYQQRPGQPPKLLIYGASNVESGVPARFSGSGSGTDFSLNIHPVEEDDIAMYFCQQSRKVPYTFGGGTKLEIKRTVAAPSVFIFPPSDEQLKSGTASVVCLLNNFYPREAKVQWKVDNALQSGNSQESVTEQDSKDSTYSLSSTLTLSKADYEKHKVYACEVTHQGLSSPVTKSFNRGEC
- Kd (mouse FcγRI): 100 nM
- fold-change relative to IgG1 (mouse FcγRI): 0.8 fold
- Kd (mouse FcγRIV [3]): 1 nM
- fold-change relative to IgG1 (mouse FcγRIV [3]): 235 fold
- Kd (mouse FcγRIIb [4]): 130 nM
- fold-change relative to IgG1 (mouse FcγRIIb [4]): 114 fold
- Kd (mouse FcγRIII [5]): 10 nM
- fold-change relative to IgG1 (mouse FcγRIII [5]): 0.16 fold
- Kd (human FcγR2B): 21000 nM
- fold-change relative to IgG1 (human FcγR2B): 1.1 fold
- Kd (human FcγR2A (R131) [6]): 1600 nM
- fold-change relative to IgG1 (human FcγR2A (R131) [6]): 19 fold
- Kd (human FcγR3A (F158)): 675 nM
- fold-change relative to IgG1 (human FcγR3A (F158)): 9 fold
- Kd (human FcγR3B [8]): 3200 nM
- fold-change relative to IgG1 (human FcγR3B [8]): 7.8 fold
- fold increase in KD compared to the VIC16 human IgG1 (human FcγR2A (R131) [9]): 18 fold
- fold increase in binding (mouse FcγRIV [10]): 14 fold
- fold increase in binding (mouse FcγRIIb [11]): 4 fold
- fold decrease in binding compared to IgG1 (mouse FcγRIII [12]): 6 fold
